± gives the uncertainty stated by the source.

The series in a line: abundance fitness (aPCA) (normalised: wild type 0, dead -1); higher = more abundant; growth selection in yeast, the domain comes from the species named. The following applies: Homo sapiens.
Substance “E3 ubiquitin-protein ligase NEDD4-like N215L, Q96PU5” returned an abundance fitness of -0.205 ± 0.07.
The same measure for “E3 ubiquitin-protein ligase NEDD4-like N215M, Q96PU5”: -0.077 ± 0.062.
The same measure for “E3 ubiquitin-protein ligase NEDD4-like N215P, Q96PU5”: -0.171 ± 0.074; for “E3 ubiquitin-protein ligase NEDD4-like N215Q, Q96PU5”: -0.081 ± 0.091; for “E3 ubiquitin-protein ligase NEDD4-like N215R, Q96PU5”: -0.193 ± 0.063.
The same measure for “E3 ubiquitin-protein ligase NEDD4-like N215S, Q96PU5”: -0.013 ± 0.07; for “E3 ubiquitin-protein ligase NEDD4-like N215T, Q96PU5”: -0.118 ± 0.095.
In turn, “E3 ubiquitin-protein ligase NEDD4-like N215V, Q96PU5” showed an abundance fitness of -0.263 ± 0.071.
The same measure for “E3 ubiquitin-protein ligase NEDD4-like N215W, Q96PU5”: -0.293 ± 0.069; for “E3 ubiquitin-protein ligase NEDD4-like N215Y, Q96PU5”: -0.173 ± 0.1; for “E3 ubiquitin-protein ligase NEDD4-like N216A, Q96PU5”: 0.016 ± 0.056.
Substance “E3 ubiquitin-protein ligase NEDD4-like N216C, Q96PU5” displayed an abundance fitness of -0.09 ± 0.098.
The same measure for “E3 ubiquitin-protein ligase NEDD4-like N216D, Q96PU5”: -0.142 ± 0.085; for “E3 ubiquitin-protein ligase NEDD4-like N216E, Q96PU5”: -0.188 ± 0.076; for “E3 ubiquitin-protein ligase NEDD4-like N216F, Q96PU5”: 0.052 ± 0.091.
The figure for “E3 ubiquitin-protein ligase NEDD4-like N216G, Q96PU5” is 0.127 ± 0.052; for “E3 ubiquitin-protein ligase NEDD4-like N216I, Q96PU5” it is 0.014 ± 0.079; for “E3 ubiquitin-protein ligase NEDD4-like N216L, Q96PU5” it is -0.001 ± 0.056.
The figure for “E3 ubiquitin-protein ligase NEDD4-like N216M, Q96PU5” is 0.18 ± 0.094.
“E3 ubiquitin-protein ligase NEDD4-like N216P, Q96PU5” returned an abundance fitness of -0.147 ± 0.089.
The figure for “E3 ubiquitin-protein ligase NEDD4-like N216Q, Q96PU5” is -0.343 ± 0.1; for “E3 ubiquitin-protein ligase NEDD4-like N216R, Q96PU5” it is -0.239 ± 0.065.
The same measure for “E3 ubiquitin-protein ligase NEDD4-like N216S, Q96PU5”: 0.065 ± 0.058.
The substance “E3 ubiquitin-protein ligase NEDD4-like N216T, Q96PU5” displayed an abundance fitness of 0.127 ± 0.086.
The same measure for “E3 ubiquitin-protein ligase NEDD4-like N216V, Q96PU5”: -0.151 ± 0.056.
On to “E3 ubiquitin-protein ligase NEDD4-like N216W, Q96PU5”, for which the abundance fitness was determined as 0.029 ± 0.062.
As for “E3 ubiquitin-protein ligase NEDD4-like P191A, Q96PU5”, the abundance fitness is -0.044 ± 0.07.
The same measure for “E3 ubiquitin-protein ligase NEDD4-like P191C, Q96PU5”: -0.155 ± 0.087; for “E3 ubiquitin-protein ligase NEDD4-like P191D, Q96PU5”: -0.086 ± 0.11.
The figure for “E3 ubiquitin-protein ligase NEDD4-like P191E, Q96PU5” is -0.086 ± 0.07; for “E3 ubiquitin-protein ligase NEDD4-like P191F, Q96PU5” it is -0.326 ± 0.12.
Substance “E3 ubiquitin-protein ligase NEDD4-like P191G, Q96PU5” displayed an abundance fitness of -0.118 ± 0.054.
“E3 ubiquitin-protein ligase NEDD4-like P191H, Q96PU5” returned an abundance fitness of -0.072 ± 0.073.
Take “E3 ubiquitin-protein ligase NEDD4-like P191I, Q96PU5”: the abundance fitness worked out at 0.152 ± 0.12.
The figure for “E3 ubiquitin-protein ligase NEDD4-like P191K, Q96PU5” is 0.024 ± 0.076; for “E3 ubiquitin-protein ligase NEDD4-like P191M, Q96PU5” it is -0.378 ± 0.057.
The figure for “E3 ubiquitin-protein ligase NEDD4-like P191N, Q96PU5” is 0.051 ± 0.064; for “E3 ubiquitin-protein ligase NEDD4-like P191Q, Q96PU5” it is 0.024 ± 0.074; for “E3 ubiquitin-protein ligase NEDD4-like P191R, Q96PU5” it is -0.167 ± 0.061.
The same measure for “E3 ubiquitin-protein ligase NEDD4-like P191S, Q96PU5”: 0.037 ± 0.069; for “E3 ubiquitin-protein ligase NEDD4-like P191T, Q96PU5”: 0.125 ± 0.077; for “E3 ubiquitin-protein ligase NEDD4-like P191V, Q96PU5”: -0.028 ± 0.058.
For the substance “E3 ubiquitin-protein ligase NEDD4-like P191W, Q96PU5”, the abundance fitness was -0.378 ± 0.058.
The same measure for “E3 ubiquitin-protein ligase NEDD4-like P191Y, Q96PU5”: -0.432 ± 0.14; for “E3 ubiquitin-protein ligase NEDD4-like P192A, Q96PU5”: -0.021 ± 0.078.
The figure for “E3 ubiquitin-protein ligase NEDD4-like P192D, Q96PU5” is -0.173 ± 0.063.
The figure for “E3 ubiquitin-protein ligase NEDD4-like P192E, Q96PU5” is -0.369 ± 0.079.
Substance “E3 ubiquitin-protein ligase NEDD4-like P192F, Q96PU5” gave an abundance fitness of -0.296 ± 0.075.
The same measure for “E3 ubiquitin-protein ligase NEDD4-like P192G, Q96PU5”: -0.064 ± 0.06; for “E3 ubiquitin-protein ligase NEDD4-like P192H, Q96PU5”: -0.1 ± 0.071.
The figure for “E3 ubiquitin-protein ligase NEDD4-like P192I, Q96PU5” is -0.269 ± 0.1.
The same measure for “E3 ubiquitin-protein ligase NEDD4-like P192K, Q96PU5”: -0.086 ± 0.095.
Substance “E3 ubiquitin-protein ligase NEDD4-like P192L, Q96PU5” had an abundance fitness of -0.173 ± 0.072.
The same measure for “E3 ubiquitin-protein ligase NEDD4-like P192M, Q96PU5”: 0.094 ± 0.082; for “E3 ubiquitin-protein ligase NEDD4-like P192N, Q96PU5”: -0.014 ± 0.059.
The substance “E3 ubiquitin-protein ligase NEDD4-like P192Q, Q96PU5” gave an abundance fitness of 0.02 ± 0.076.
“E3 ubiquitin-protein ligase NEDD4-like P192R, Q96PU5” gave an abundance fitness of 0.012 ± 0.055.
The substance “E3 ubiquitin-protein ligase NEDD4-like P192S, Q96PU5” gave an abundance fitness of -0.201 ± 0.082.
The same measure for “E3 ubiquitin-protein ligase NEDD4-like P192W, Q96PU5”: -0.484 ± 0.072; for “E3 ubiquitin-protein ligase NEDD4-like P192Y, Q96PU5”: -0.31 ± 0.068; for “E3 ubiquitin-protein ligase NEDD4-like P193A, Q96PU5”: -0.12 ± 0.068.

The values are drawn from the Human Domainome abundance scans (Beltran et al. 2025).
